Measurements published in publication PMC6486627, “Structural basis for RNA translocation by DEAH-box ATPases” (Nucleic Acids Research, 2019).
Residue numbers refer to the chain shown, from its start. Names may count otherwise.

B1: ctPrp22 (Thermochaetoides thermophila DSM 1495) (protein)
chain: TNMSIKEQRESLPVFQFRDQIIQAVKDNQILIVVGETGSGKTTQVTQYLAEAGFTKYGMIGCTQPRRVAAVSVAKRVAEEVGCQLGQEVGYTIRFEDVTSPATKIKYMTDGMLQREILMDPDLKRYSVIMLDEAHERTIATDVLFALLKKTVKRRPDLKVIVTSATLDAEKFSEYFNSCPIFTIPGRTFPVEILYSREPEPDYLEAALTTVMQIHLTEPPGDILVFLTGQEEIDTACEILYERMKALGPSVPELIILPIYSALPSEMQSRIFEPAPPGSRKVVIATNIAETSITIDYIYYVVDPGFVKQNAYDPKLGMDSLVVTPISQAQANQRAGRAGRTGPGKCFRLYTEAAYQSEMLPTTIPDIQRQNLANTILLLKAMGINDLLRFDFMDPPPVNTMLTALEELYALGALDDEGLLTRLGRKMADFPMEPSLSKVLIASVDKGCSDEMVTIVSMLNLQQIFYRPKDKQQQADQKKAKFHDPTGDHLTLLNVYNAWKNSGYSNAWCFENYIQARAMRRARDVRQQIVKIMERHRHPIISCGRDTDKIRQALCAGFFRNTARKDPQEGYKTLTEGTPVYLHPSSALFGKQAEWVLYHELVLTTKEYMHFTTAIEPKWLVEAAPTFFKLAPTDRLSKRKKAERIQPLYNKYEGEDGWRLSAQRRAARPGGGGGTWG
notes: N-terminally truncated, lacks first 545 residues (S1 motif omitted); GST fusion from pGEX-6p1, tag cleaved by TEV; E. coli Rosetta 2 (DE3)
B2: ctPrp22 (Thermochaetoides thermophila DSM 1495; S837A) (protein)
chain: B1 chain with S292A
notes: as for B1
B3: ctPrp22 (Thermochaetoides thermophila DSM 1495; S837G) (protein)
chain: B1 chain with S292G
notes: as for B1

Key:
[1] = target: T1, ctPrp43 (Thermochaetoides thermophila, UniProt G0RY84); assay: NADH-coupled ATPase assay (pyruvate kinase / lactate dehydrogenase), […] nm; format: biochemical; conditions: no RNA; no G-patch protein; 25 mM Bis-Tris propane pH 7.5, 150 mM KCl, 3 mM MgCl2, 25 °C; 5 uM enzyme; ATP 0-2 mM
T1 construct: gene CTHT_0005780; truncated, residues 61-764; GST fusion, tag cleaved by TEV; E. coli Rosetta 2 (DE3); no G-patch protein

[2] = substrate: Nc1ncnc2c1ncn2[C@@H]1O[C@H](COP(=O)(O)OP(=O)(O)OP(=O)(O)O)[C@@H](O)[C@H]1O; assay: purified protein; format: biochemical, Thermochaetoides thermophila; conditions: no RNA, 25 mM Bis-Tris propane pH 7.5, 150 mM KCl, 3 mM MgCl2, 25 °C, 0.4 uM enzyme, ATP 0-2 mM

T1 sequence (G0RY84 entry or part of it): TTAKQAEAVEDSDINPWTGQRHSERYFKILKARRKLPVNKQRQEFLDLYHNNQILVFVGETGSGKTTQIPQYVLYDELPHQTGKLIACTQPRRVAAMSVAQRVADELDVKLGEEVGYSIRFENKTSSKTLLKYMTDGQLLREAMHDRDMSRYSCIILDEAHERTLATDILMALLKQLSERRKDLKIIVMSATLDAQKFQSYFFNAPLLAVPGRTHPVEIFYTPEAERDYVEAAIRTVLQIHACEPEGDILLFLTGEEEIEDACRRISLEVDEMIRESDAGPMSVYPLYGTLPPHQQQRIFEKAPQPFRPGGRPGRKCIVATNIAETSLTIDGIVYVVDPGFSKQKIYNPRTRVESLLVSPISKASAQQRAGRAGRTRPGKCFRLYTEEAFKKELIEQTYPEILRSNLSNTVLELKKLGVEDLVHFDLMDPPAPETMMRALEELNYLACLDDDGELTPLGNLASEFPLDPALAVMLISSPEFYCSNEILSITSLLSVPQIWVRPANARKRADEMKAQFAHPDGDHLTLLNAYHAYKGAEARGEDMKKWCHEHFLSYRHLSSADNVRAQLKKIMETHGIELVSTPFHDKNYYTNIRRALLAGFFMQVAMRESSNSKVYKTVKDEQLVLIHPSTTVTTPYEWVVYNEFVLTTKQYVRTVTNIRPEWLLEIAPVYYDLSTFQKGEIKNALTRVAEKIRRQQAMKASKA

Molecule	Km [1]	Km [2]	kcat [2]
Nc1ncnc2c1ncn2[C@@H]1O[C@H](COP(=O)(O)OP(=O)(O)OP(=O)(O)O)[C@@H](O)[C@H]1O [ATP]	21.1 ± 3.88 µM		
B1		34.53 ± 1.74 µM	0.559 ± 0.00483 s⁻¹
B2		33.15 ± 2.24 µM	0.8948 ± 0.0107 s⁻¹
B3		24.79 ± 0.93 µM	0.9228 ± 0.00583 s⁻¹
